# Data as given in US20240336691A1 (PROMETHEUS BIOSCIENCES, published 2024).
# Positions count from the first letter of the chain named. Several values for one entry are separate records, joined by “and”; a condition that tells them apart may be missing. Equal entries are not always repeated.
# T1: TL1A in human blood (endogenous) (human, UniProt O95150 72-251, limits assumed)
# T1 sequence (looked up): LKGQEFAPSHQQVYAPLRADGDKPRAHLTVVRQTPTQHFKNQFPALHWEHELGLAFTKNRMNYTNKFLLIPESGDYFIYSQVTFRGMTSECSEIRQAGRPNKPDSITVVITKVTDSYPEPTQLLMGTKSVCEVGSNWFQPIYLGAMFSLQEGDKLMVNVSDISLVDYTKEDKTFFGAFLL
# T2: TL1A produced by cynomolgus monkey PBMCs in whole blood (cynomolgus monkey, UniProt G7PRK8 72-251)
# T2 sequence: T1 sequence (looked up) with F39L, I78V
# B1: A212 (antibody, human IgG1, V domains shown)
# VH: QVQLVQSGAEVKKPGASVKVSCKASGFDIQDTYMHWVRQRPGQGLEWIGRIDPASGHTKYDPKFQVRATITTDTSTSTAYLELSSLRSEDTAVYYCARSGGLPDVWGQGTTVTVSS
# VL: EIVLTQSPGTLSLSPGERATLSCRASSSVSYMYWYQQKPGQAPRPLIYATSNLASGIPDRFSGSGSGTDFTLTISRLEPEDFAVYYCQQWEGNPRTFGGGTKLEIK
# B2: A147 (antibody, human IgG1, V domains shown)
# VH: QVQLVQSGAEVKKPGASVKVSCKASGFDIQDTYMHWVKQRPGQGLEWMGRIEPASGHIKYDPKFQGRVTMTRDTSTSTVYMELSSLRSEDTAVYYCARSGGLPDWWGQGTTVTVSS
# VL: B1 VL
# B3: A220 (antibody, human IgG1, V domains shown)
# VH: B1 VH with R38K, I48M, A68V, I70M, T72R
# VL: B1 VL with L46W
# B4: A213 (antibody, human IgG1, V domains shown)
# VH: B1 VH with I48M, A68V, A79V, L81M
# VL: B1 VL
# B5: A217 (antibody, human IgG1, V domains shown)
# VH: B2 VH with E52D, I58T, G66V, M70I, W105V
# VL: B1 VL
# B6: A219 (antibody, V domains shown)
# VH: B1 VH with R38K, I48M, A68V, T72R, A79V
# VL: B1 VL
# B7: anti-TL1A antibody A219 (antibody, V domains shown)
# VH: B1 VH with R38K, I48M, A68V, T72R, A79V
# VL: B1 VL
# Molecular target: T1, TL1A in human blood (endogenous)
# Experiment: cell-based or functional assay
% Inhibition at 1 nM Ig of interferon gamma release in human blood [%],% Inhibition at 10 nM Ig of interferon gamma release in human blood [%],Binder
46.8,71.2,B1
51.3,72.4,B2
36.9,63.2,B3
48.6,69.8,B4
46,72.2,B5
59.8,75.2,B6

# Molecular target: T2, TL1A produced by cynomolgus monkey …
# Experiment: cell-based or functional assay
row,mean IC50 for the inhibition of the IFN-γ response in monkey whole blood,Binder
1,1.54 nM and 289 ng/mL,B7
